The assay addresses amyloid precursor protein (APP) on HEK293-APP stable transfected cells (UniProt P05067). Briefly: flow cytometry on HEK293-APP cells, four-parameter fit of MFI. On the technique in general: A flow cytometer gives signals particle by particle.

By EC50 is commonly meant the concentration that produces a half-maximal response.

Sequence of amyloid precursor protein (APP) on HEK293-APP stable transfected cells (P05067 18-770): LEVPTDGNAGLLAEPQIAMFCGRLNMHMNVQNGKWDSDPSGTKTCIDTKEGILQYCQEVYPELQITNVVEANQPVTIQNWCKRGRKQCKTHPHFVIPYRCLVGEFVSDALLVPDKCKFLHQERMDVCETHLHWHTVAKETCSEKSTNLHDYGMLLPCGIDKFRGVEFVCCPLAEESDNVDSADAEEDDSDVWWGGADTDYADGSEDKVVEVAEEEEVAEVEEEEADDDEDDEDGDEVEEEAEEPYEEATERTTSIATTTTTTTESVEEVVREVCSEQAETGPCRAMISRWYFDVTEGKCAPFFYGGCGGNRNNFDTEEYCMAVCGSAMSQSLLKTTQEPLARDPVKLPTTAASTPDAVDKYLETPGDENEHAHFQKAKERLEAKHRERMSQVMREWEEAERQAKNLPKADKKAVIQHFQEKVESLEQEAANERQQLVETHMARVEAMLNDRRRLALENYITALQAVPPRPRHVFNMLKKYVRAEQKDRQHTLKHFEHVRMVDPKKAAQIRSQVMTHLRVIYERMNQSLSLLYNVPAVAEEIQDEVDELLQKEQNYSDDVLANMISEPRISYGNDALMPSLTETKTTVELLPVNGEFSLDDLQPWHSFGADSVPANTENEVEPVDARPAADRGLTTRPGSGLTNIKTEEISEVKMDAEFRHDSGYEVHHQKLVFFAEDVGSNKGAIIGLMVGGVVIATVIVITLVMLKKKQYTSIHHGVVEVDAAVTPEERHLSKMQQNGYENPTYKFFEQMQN

In the case of Lecanemab (antibody), the EC50 stood at 6.83 nM.

The values are drawn from patent publication EP4768503A1.
